In the supplement of paper PMC12042874:
± gives the uncertainty stated by the source.

assay: amyloid nucleation score (Sup35N fusion, yeast selection) (log enrichment); library NNK1; higher = more nucleation; inactive = no reads after selection
Summary of the method: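 Nucleation score is defined as the DiMSum log enrichment of output over input reads, with centring on the mode score of non-aggregating sequences. A minimum of 100 input reads was required for each sequence. Reads came from Illumina sequencing of plasmid inserts from psi-negative yeast expressing Sup35N fused to peptides of 20 random codons, induced with 100 μM copper sulfate for 24 hours and grown 7 days at 30°C on medium lacking adenine and uracil.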

| Substance | amyloid nucleation score |
| --- | --- |
| CNLYFSYNCVFT | -0.592 ± 0.24 |
| SSLVATPLGLELIKGRSSSL | 0.57 ± 1.2 |
| LREVGQNLVGMSV | inactive |
| WLDAVGMAAG | -0.989 ± 2.7 |
| CWFTAVLARPLWNSSVSSVA | -0.369 ± 0.34 |
| VEVSWAAQST | 0.506 ± 0.91 |
| QVRGTEVPVSIAVGLGTSRL | 1.05 ± 0.66 |
| CALLRCMLGSYSQYVARVGE | 0.504 ± 0.39 |
| AFLKLSTRWWKPVIFYKCDL | -0.932 ± 1.1 |
| GIRMRSKNYGSWWFPLLYGE | 0.827 ± 0.84 |
| WITTMHNLHELNHRGPPPKL | -0.972 ± 1.8 |
| QVVPC | -0.153 ± 0.66 |
| VRMDHIRTKPPLHAIVAPQP | -1.68 ± 2.4 |
| PFSDSVARSDGCGVQRV | -0.444 ± 1.2 |
| LLLLHLWLALRGLSDCSSHV | 0.626 ± 0.87 |
| SVRANIA | 1.34 ± 0.38 |
| PFIARAFKLMLAWVLFCRAA | 0.171 ± 0.75 |
| WRSVPRASFRNWSLWDPLYT | 0.453 ± 0.29 |
| SSRDGTIRRGWIWVDVRVKS | 0.142 ± 0.48 |
| PCWWQFY | 0.167 ± 0.64 |
| YENHGISDLSCIFTPYKV | inactive |
| VSRTCIQYCDDDDRSKSRSS | 0.253 ± 0.23 |

| Substance | amyloid nucleation score |
| --- | --- |
| LGKRDFSGFSAKSQLFK | -0.613 ± 0.27 |
| FMPYWNTLNFMSYGVRLIHK | 0.231 ± 0.65 |
| EHLLCVSRCMLSSNLVTNCA | -0.113 ± 0.94 |
| GIISASSVNTQRWTSGTNTC | inactive |
| GGLRWRRCFLP | -1.58 ± 0.93 |
| LYSGFNRSKRSAVNSICAH | 0.368 ± 0.18 |
| VMESTRNFSKVMSCSLFRFR | -0.684 ± 0.62 |
| TRLCWFWFNA | 0.066 ± 0.41 |
| LILFWF | -0.5 ± 1.4 |
| EYRTSSEQTANTFILKPRWA | 1.72 ± 0.4 |
| KNVSRVCV | inactive |
| GMSGYKKFCSGIWWSLNQCS | 0.408 ± 0.42 |
| LAWTMSQQIGETRRGAEMCT | 0.106 ± 0.33 |
| GGVGLDWLEVVFVCTRGQYD | inactive |
| VDVHVGCRTIRL | 0.034 ± 0.32 |
| MLCFSLVYNGREGYEINLLH | -0.552 ± 0.31 |
| IVFDSLRGCSF | inactive |
| VFTIWSMFFIVRFNLWWKCA | 0.081 ± 0.49 |
| SDLDVRAWQSLVSWIYRFPS | 0.18 ± 0.37 |
| AVVCVIIFYVNDRLYGCNLS | 0.395 ± 0.23 |
| ALIFYRFLL | 0.863 ± 0.41 |
| AVEVYGVISRKLINVSDRIG | 0.588 ± 0.69 |

| Substance | amyloid nucleation score |
| --- | --- |
| LRWFPEAFNGAERESLASNL | -0.102 ± 0.52 |
| IMKSFMDATYVSCFWILMPA | 1.57 ± 0.53 |
| LSDFLRPLVLVFLSTLEVAM | 0.138 ± 0.35 |
| SVTWFIYAWWFLGGSL | -0.921 ± 2.4 |
| SFAVCGKLDHWCPCSAITLV | 1.08 ± 0.64 |
| RICLLRRGVCTHNVDMVVMY | -0.873 ± 0.68 |
| RNCEEGFWRSEQPDHTYKLA | -0.955 ± 0.62 |
| CFILTVTYLNVGGNRMTAFH | 3.36 ± 0.1 |
| LYVFHRRYYWANYDDRYPLP | 0.613 ± 0.48 |
| QFEFNFTKEDQYYEGFPVDW | -0.827 ± 1.7 |
| IFAMV | inactive |
| ISSYTCCFYSYHQSHVMPLG | 5.848 ± 0.051 |
| PNIFCLQRSPNRP | -0.331 ± 0.31 |
| LNSLNVGLVEDKQYILYER | 1.68 ± 0.39 |
| MLSGP | -0.161 ± 0.67 |
| VRRGTVFAVGTCYIGRWFAV | 1.21 ± 0.97 |
| SSIIILSNMLTYK | 3.61 ± 0.1 |
| YFVHQNKHRTKIIILGLGLI | 1.35 ± 0.5 |
| NYRFVCEPYFYSNCPPAQWT | 0.02 ± 0.59 |
| AKMYLRTLYTSPLRLPLAPQ | -0.333 ± 1.4 |
